Source: the supplement of paper PMC7877785
± gives the uncertainty stated by the source.

Test: self-splicing fitness, log relative to wild type (ln ratio); higher = more splicing; Tetrahymena group I intron in knt gene, E. coli kanamycin selection, DiMSum; sequences stand for … in CUCUCU…GGAGGGAAAAGUUAUCAGGCAUGCACCUGGUAGCUAGUCUUUAAACCAAUAGAUUGCAUCGGUUUAAAAGGCAAGACCGUCAAAUUGCGGGAAAGGGGUCAACAGCCGUUCAGUACCAAGUCUCAGGGGAAACUUUGAGAUGGCCUUGCAAAGGGUAUGGUAAUAAGCUGACGGACAUGGUCCUAACCACGCAGCCAAGUCCUAAGUCAACAGAUCUUCUGUUGAUAUGGAUGCAGUUCACAGACUAAAUGUCGGUCGGGGAAGAUGUAUUCUUCUCAUAAGAUAUAGUCGGACCUCUCCUUAAUGGGAGCUAGCGGAUGAAGUGAUGCAACACUGGAGCCGCUGGGAACUAAUUUGUAUGCGAAAGUAUAUUGAUUAGUUUUGGAGUACUCGUGGUCG
Outline: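 The eight P1ex-region nucleotides of an intron in the knt kanamycin-resistance gene on pET-22b(+) were all randomised and the library put into E. coli BL21(DE3). Six replicate transformations were grown overnight at 37°C or 30°C on LB agar with or without 25 μg/mL kanamycin, together with 100 μg/mL carbenicillin, 50 μM IPTG and 0.2% rhamnose. Colonies were pooled and amplicon-sequenced on an Illumina HiSeq 2500. Fitness from DiMSum is the error-weighted combination of wild-type-normalised replicate fold changes, kanamycin over none.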

Sequence	self-splicing fitness (ln) (30 °C)	self-splicing fitness (ln) (37 °C)
CUCCAGCAAUAUUACGAGCU	-4.01 ± 0.28	-2.44 ± 0.23
CGGCAGCAAUAUUACGAUGA	-1.21 ± 0.095	-1.21 ± 0.12
UACGAGCAAUAUUACGUACA	-0.833 ± 0.27	-1.22 ± 0.48
CUUGAGCAAUAUUACGGGAG	-3.95 ± 0.22	-3.25 ± 0.26
UGACAGCAAUAUUACGGUGG	-1.56 ± 0.064	-0.331 ± 0.082
AAGCAGCAAUAUUACGAUGU	-1.3 ± 0.06	-0.566 ± 0.078
GACGAGCAAUAUUACGUGAG	-2.7 ± 0.16	-2.62 ± 0.19
GACAAGCAAUAUUACGUCCU	-1.99 ± 0.27	-0.755 ± 0.19
GGGGAGCAAUAUUACGAUUA	-2.23 ± 0.23	-1.58 ± 0.22
AUGGAGCAAUAUUACGGCAG	-3.04 ± 0.34	-1.73 ± 0.5
GUGCAGCAAUAUUACGGAGU	-3.05 ± 0.12	-2.07 ± 0.11
ACUAAGCAAUAUUACGACAA	-1.63 ± 0.079	-0.52 ± 0.1
UUCUAGCAAUAUUACGUGAA	-0.339 ± 0.066	-0.148 ± 0.082
GCACAGCAAUAUUACGGUUC	-0.415 ± 0.055	-0.0499 ± 0.073
UCGCAGCAAUAUUACGGGCA	-1.41 ± 0.4	-0.479 ± 0.23
CGGAAGCAAUAUUACGUUGU	-3.82 ± 0.22	-2.88 ± 0.24
AAGCAGCAAUAUUACGUGCG	-0.989 ± 0.073	-0.0742 ± 0.092
ACAAAGCAAUAUUACGGGUA	-1.86 ± 0.09	-0.94 ± 0.087
UCGCAGCAAUAUUACGCGGG	-3.93 ± 0.3	-3.33 ± 0.33
AUGGAGCAAUAUUACGUCGC	-2.11 ± 0.47	-1.78 ± 0.48
GCCUAGCAAUAUUACGGGAG	-0.724 ± 0.094	-0.391 ± 0.094
UGAAAGCAAUAUUACGCCGU	-2.92 ± 0.29	-1 ± 0.16
GUAAAGCAAUAUUACGGCUU	-0.183 ± 0.11	0.219 ± 0.14
GAUAAGCAAUAUUACGUAGU	-2.09 ± 0.083	-0.957 ± 0.091

Sequence	self-splicing fitness (ln) (30 °C)	self-splicing fitness (ln) (37 °C)
UGGUAGCAAUAUUACGCGGU	–	-2.58 ± 0.45
GGCCAGCAAUAUUACGAGGU	-3.26 ± 0.45	-2.45 ± 0.32
UAUUAGCAAUAUUACGUGCG	-0.929 ± 0.079	-0.636 ± 0.12
CAGUAGCAAUAUUACGUGAC	-4.5 ± 0.36	-2.23 ± 0.31
GUUUAGCAAUAUUACGGACA	-1.68 ± 0.25	-1.44 ± 0.25
GACGAGCAAUAUUACGGUUU	-2.28 ± 0.11	-1.87 ± 0.14
UCUAAGCAAUAUUACGACCA	-1.73 ± 0.24	-0.242 ± 0.19
AAUUAGCAAUAUUACGUGAA	-2.4 ± 0.15	-1.22 ± 0.17
CACGAGCAAUAUUACGAGCG	-0.857 ± 0.086	-1.33 ± 0.1
UGACAGCAAUAUUACGACAC	-0.678 ± 0.12	-2.04 ± 0.17
CUUAAGCAAUAUUACGUGAU	-2.63 ± 0.092	-0.627 ± 0.093
CUAGAGCAAUAUUACGUCUG	0.15 ± 0.094	0.417 ± 0.11
GAACAGCAAUAUUACGCAAU	-1.53 ± 0.11	-0.769 ± 0.11
GAUUAGCAAUAUUACGUUCC	-2.41 ± 0.3	-1.59 ± 0.19
AAUCAGCAAUAUUACGGAUA	-0.0268 ± 0.069	0.49 ± 0.086
ACGCAGCAAUAUUACGAGCG	-1.54 ± 0.083	-0.23 ± 0.1
CCGCAGCAAUAUUACGUCGU	-4.02 ± 0.17	-2.79 ± 0.15
AAGUAGCAAUAUUACGAAGU	-3.02 ± 0.2	-1.9 ± 0.18
ACCUAGCAAUAUUACGUGCU	-2.56 ± 0.092	-1.31 ± 0.098
GCAAAGCAAUAUUACGACUU	-0.0792 ± 0.067	-0.0895 ± 0.087
CAACAGCAAUAUUACGACAC	-2.93 ± 0.18	-1.79 ± 0.18
GCCCAGCAAUAUUACGCAGU	-0.834 ± 0.049	0.141 ± 0.056
CGAUAGCAAUAUUACGAUUA	-1.59 ± 0.13	-0.77 ± 0.15
GUGGAGCAAUAUUACGGGCA	-2.2 ± 0.28	-1.76 ± 0.45

Sequence	self-splicing fitness (ln) (30 °C)	self-splicing fitness (ln) (37 °C)
CGCUAGCAAUAUUACGUUAG	-3.47 ± 0.18	-2.89 ± 0.24
AAGGAGCAAUAUUACGCGCC	-2.85 ± 0.24	-1.19 ± 0.17
ACUAAGCAAUAUUACGUGCA	-1.37 ± 0.073	-0.431 ± 0.11
GCAUAGCAAUAUUACGACAU	-1.03 ± 0.013	-0.295 ± 0.032
CACCAGCAAUAUUACGGCUC	-1.44 ± 0.075	-0.828 ± 0.087
CGCAAGCAAUAUUACGGCAG	-0.448 ± 0.072	-0.305 ± 0.1
GUUAAGCAAUAUUACGCCAU	-2.03 ± 0.27	-1.26 ± 0.3
GCUGAGCAAUAUUACGAAAU	-3.27 ± 0.2	-2.43 ± 0.22
AGGCAGCAAUAUUACGAAGA	-1.96 ± 0.29	-1.12 ± 0.18
CGUAAGCAAUAUUACGCCGG	-1.38 ± 0.11	-1.04 ± 0.14
CAGCAGCAAUAUUACGUGAA	-2.06 ± 0.075	-0.955 ± 0.09
GGGCAGCAAUAUUACGAGUA	-2.78 ± 0.42	-2.53 ± 0.33
UGCGAGCAAUAUUACGCCUG	-3.98 ± 0.22	-0.862 ± 0.13
ACUAAGCAAUAUUACGGUUA	-2.02 ± 0.1	-1.06 ± 0.086
UUCGAGCAAUAUUACGAUUU	-4.18 ± 0.28	-2.19 ± 0.2
ACACAGCAAUAUUACGCAAG	-1.7 ± 0.1	-0.825 ± 0.11
GAAAAGCAAUAUUACGGAUG	-2.63 ± 0.1	-1.14 ± 0.1
AUUGAGCAAUAUUACGGUUC	-3.69 ± 0.33	-2.16 ± 0.25
ACAAAGCAAUAUUACGCGGG	-2.47 ± 0.09	-1.01 ± 0.09
CCCUAGCAAUAUUACGCCUG	-3.64 ± 0.23	-3.11 ± 0.23
GACCAGCAAUAUUACGGAAC	-0.88 ± 0.098	-0.504 ± 0.11
GACUAGCAAUAUUACGCAGG	-3.04 ± 0.17	-2.17 ± 0.12
GGCUAGCAAUAUUACGGCUA	0.235 ± 0.32	-0.282 ± 0.42
CUACAGCAAUAUUACGAGUC	-3.63 ± 0.24	-3.18 ± 0.38

Sequence	self-splicing fitness (ln) (30 °C)	self-splicing fitness (ln) (37 °C)
GGUAAGCAAUAUUACGUGCG	-1.12 ± 0.12	-0.227 ± 0.12
ACACAGCAAUAUUACGAUGG	-1.53 ± 0.064	-0.66 ± 0.082
UAGGAGCAAUAUUACGGAUG	-3.62 ± 0.12	-1.69 ± 0.11
UCCGAGCAAUAUUACGCUGG	-3.33 ± 0.21	-1.56 ± 0.19
GAAGAGCAAUAUUACGUUCG	-1.52 ± 0.11	-0.987 ± 0.14
GACGAGCAAUAUUACGGGUA	-3.66 ± 0.2	-2.94 ± 0.2
UACAAGCAAUAUUACGAACC	–	-0.357 ± 0.23
ACUCAGCAAUAUUACGUUAU	-2.29 ± 0.073	-1.27 ± 0.086
UGGCAGCAAUAUUACGCGUC	-3.54 ± 0.37	-2.21 ± 0.3
GUUUAGCAAUAUUACGUAGG	-2.77 ± 0.13	-0.822 ± 0.14
AGCAAGCAAUAUUACGCGUC	-3.61 ± 0.15	-3.06 ± 0.24
UAACAGCAAUAUUACGGCAA	-0.777 ± 0.089	0.203 ± 0.096
CGAAAGCAAUAUUACGGUUG	-0.623 ± 0.057	-0.494 ± 0.073
AUAUAGCAAUAUUACGGUAU	-3.75 ± 0.32	-1.45 ± 0.2
UUUGAGCAAUAUUACGCAAG	-3.09 ± 0.34	-1.51 ± 0.23
GCAUAGCAAUAUUACGCAAG	-3.49 ± 0.41	-2.31 ± 0.33
CGCAAGCAAUAUUACGCGAC	-3.77 ± 0.39	-1.68 ± 0.18
GAAAAGCAAUAUUACGGUAC	-1.94 ± 0.079	-1.11 ± 0.09
AGCGAGCAAUAUUACGUCAU	-3.13 ± 0.21	-1.88 ± 0.2
UAACAGCAAUAUUACGCCUC	-2.18 ± 0.35	-2.06 ± 0.33
UUGUAGCAAUAUUACGGGAU	-4.01 ± 0.29	-2.78 ± 0.26
UAUAAGCAAUAUUACGUGGG	-2.83 ± 0.14	-2.05 ± 0.12
UCACAGCAAUAUUACGAAAU	-3.43 ± 0.37	-0.587 ± 0.16
